Test results from paper PMC5961032.

Legend:
PP1α (7–330) = PP1α (7–330) (UniProt P62136)
[1] = target: native catalytic subunit of PP1 from rabbit skeletal muscle (PP1^N) (rabbit) (UniProt P62139)
Chain of UniProt P62139 (P62139 whole entry): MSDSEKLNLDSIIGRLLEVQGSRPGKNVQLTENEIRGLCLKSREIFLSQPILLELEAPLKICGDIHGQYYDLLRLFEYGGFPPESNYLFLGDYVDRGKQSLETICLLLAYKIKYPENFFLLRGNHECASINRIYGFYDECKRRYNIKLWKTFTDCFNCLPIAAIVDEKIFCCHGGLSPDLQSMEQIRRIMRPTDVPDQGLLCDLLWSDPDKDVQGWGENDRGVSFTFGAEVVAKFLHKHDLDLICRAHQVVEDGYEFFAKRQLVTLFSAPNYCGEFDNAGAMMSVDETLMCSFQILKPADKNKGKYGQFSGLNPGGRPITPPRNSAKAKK

Chain of MBP-PPP1R15A^325–636 (O75807 325-636): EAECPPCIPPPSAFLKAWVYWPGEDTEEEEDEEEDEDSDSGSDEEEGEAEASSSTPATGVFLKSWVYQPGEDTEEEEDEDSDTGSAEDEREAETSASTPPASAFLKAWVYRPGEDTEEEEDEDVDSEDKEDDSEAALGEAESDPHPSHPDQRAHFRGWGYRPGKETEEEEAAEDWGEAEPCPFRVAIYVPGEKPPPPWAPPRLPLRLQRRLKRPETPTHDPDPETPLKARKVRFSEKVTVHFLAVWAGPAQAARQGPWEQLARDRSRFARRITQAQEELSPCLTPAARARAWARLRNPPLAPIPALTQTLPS
Chain of PPP1R15A^325–636-MBP (O75807 325-636): as above
Chain of UniProt P62136 (P62136 7-330): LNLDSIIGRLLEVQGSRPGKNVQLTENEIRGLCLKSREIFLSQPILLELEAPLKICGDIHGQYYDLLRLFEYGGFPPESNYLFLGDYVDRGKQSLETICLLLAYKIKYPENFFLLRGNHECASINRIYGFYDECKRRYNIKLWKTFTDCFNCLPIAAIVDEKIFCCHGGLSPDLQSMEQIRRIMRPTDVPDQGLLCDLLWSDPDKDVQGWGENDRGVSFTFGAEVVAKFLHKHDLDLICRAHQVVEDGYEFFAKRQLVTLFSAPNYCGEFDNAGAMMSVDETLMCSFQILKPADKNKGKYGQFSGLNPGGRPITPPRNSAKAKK

EC50 of the stimulation of eIF2α^P (2 μM) dephosphorylation by PP1α (24 nM) with G-actin (400 nM), MBP-PPP1R15A^325–636 0–100 nM, 20 min at 30 °C (PP1α (7–330)) [nM] | EC50 of the stimulation of eIF2α^P (2 μM) dephosphorylation by PP1^N (20 nM) with G-actin (400 nM), PPP1R15A^325–636-MBP 0–100 nM, 30 min at 30 °C [1] [nM] | Substance
6 |  | MBP-PPP1R15A^325–636 (from UniProt O75807 325-636) (domain or fragment)
 | 58 | PPP1R15A^325–636-MBP (from UniProt O75807 325-636) (domain or fragment)
